# Results taken from the DeepSol protein solubility set.
# Assay: soluble on expression in E. coli; label from the status in PepcDB or PDB records
row,Sequence,soluble on expression in E. coli
1,MGSDKIHHHHHHMRIGVAGVGKLGEFHTNLLKQIAAEASDVEFSGVFDLNPERLQEIGKKYGVACFSTLEELAASCDAAVIATTTSSHYAIARQLLEARLHLFIEKPITATLEEADKLIRIEQEKGLTIQVGHIERFNPALLAVEPYIGEPMYIQAERLSGFSRRVTDVSVVLDLMIHDIDLVLSLIKSDIRSIAASGVKVFSNELDMATARIEFENGAIANVTASRLSRSKLRKMRFFTRNPKSYASLDFTSGKSEVFRLVPPDQLSSKNPIKNFATKKILEQFGEIQESLKEMALDYVSPDVPKINALKEELEQFIDAIRKGKPAKVTSEEGRRALMVAGKITDEIRNNTADLD,not soluble
2,MKYMITSKGDEKSDLLRLNMIAGFGEYDMEYDDVEPEIVISIGGDGTFLSAFHQYEERLDEIAFIGIHTGHLGFYADWRPAEADKLVKLLAKGEYQKVSYPLLKTTVKYGIGKKEATYLALNESTVKSSGGPFVVDVVINDIHFERFRGDGLCMSTPSGTTAYNKSLGGALMHPSIEAMQLTEMASINNRVYRTIGSPLVFPKHHVVSLQPVNDKDFQISVDHLSILHRDVQEIRYEVSAKKIHFARFRSFPFWRRVHDSFIEDLEHHHHHH,soluble
3,MTQAATILRTGRKFDQVLRGAREVFMSDGFEGANVDDIARAAGVSKATLYSYFPDKRLLFVEVAQTECQLMAERILSMIDEDRPVREVLTITATQLVAFLISDFAQQVFRICLAERERFPELARAFYAAGPENGQRQICEYLEKAVTKGELVIADIPMAAEQFSELCKTRLWTRAVFGIQTRFTQAEIDEVALAAVDTFLARYGA,not soluble
4,MGSDKIHHHHHHMQQVFFQETEFLNSVIDYDHKVETENLCLDIAYGTDKNFLFGCGISIASILKYNEGSRLCFHIFTDYFGDDDRKYFDALALQYKTRIKIYLINGDRLRSLPSTKNWTHAIYFRFVIADYFINKAPKVLYLDADIICQGTIEPLINFSFPDDKVAMVVTEGQADWWEKRAHSLGVAGIAKGYFNSGFLLINTAQWAAQQVSARAIAMLNEPEIIKKITHPDQDVLNMLLADKLIFADIKYNTQFSLNYQLKESFINPVTNDTIFIHYIGPTKPWHDWAWDYPVSQAFMEAKNASPWKNTALLKPNNSNQLRYSAKHMLKKHRYLKGFSNYLFYFIEKIKH,not soluble
5,GPGSMGVALTHGLQRQRQQRTAAGHRSANRRGKRGLPPSLLGRLCMFVFVWMHLAEERERRECRLQGKKVFLEESSAGSSRSCMRRRHVCGVRACAGRRGCFASSVISLRCWTSSQSAVVAALTRLRVSSFSAPHLFRLARSAAPTREAASTKYFIDSLAAHSSRLIGVRAPLAHTHVHLGDCIDSTTSACVCGEEIHHHRAQPGVTVSLCTPFSLSHTPSTAWAPLLPADKHHMQASPVLAGAAVRRTATASVGSEPRTNLPFLINVVKKAQKSANTVVASTPALSSMSSTKEPPIQAAAFKPYPLLSPGEVKQAAGSSLLYKDDVCVLVNDAFPKSMVHCLVMPLDLRLQSLNALTKKDAPLLRHMLHVGDEYVRYLKTAVPHTYTARRFIAGFHALPSLPMLHMHVLSTDLDSPCLKNKKHYNSFATFFFLTGDRVLDDLERHGRVTLNQDVTRLRQMEEQDMKCLWCGTALPSVPAMKSHIQCCPQNKAVEKSS,not soluble
6,MGSDKIHHHHHHMPQTEAPDRILLIKLRHHGDILLTTPVARTLKSRFPQCEIDMLVYRETVPLLQHNPDIARVWTLDRSLRGWRKLVSQLRLLLALRRRRYQTVIHLSDQMQGAFFAKLLARRHAIGFDYPKRRKSPWHRFFTALAPLAPSDTLHTVSQNLLALSPLGITPTADEQRCVLPIQASDREAVAALLREAGVSGPYIVIHPSSRWFFKCWEDDRFAGLAEALASDGWSIVLTAAPDPAEMDMVAAIQGKIRSDRVVSVAGRLTLNQLAAIIDGARMFIGVDSVPMHMAAALGKDTVALFGPSKIHEWHPWMTRHRLLNAADYGELIDPDQVDTSTRQRYLKNIPLEAALRASRELLSSPAQE,not soluble
7,MSTYSSPFSRLLHPFSSPPLRPHQDSTTRQTVFIYSSPPVNSSMATDNVRLERMEIGMQLLLLRMAEKDGEAEKLARAELITEANLGGQGETTQLNPLVPVSKATAEKLSNELDEVGRNRTARWSKSGRTCVVS,not soluble
8,MSILVTRPSPAGEELVSRLRTLGQVAWHFPLIEFSPGQQLPQLADQLAALGESDLLFALSQHAVAFAQSQLHQQDRKWPRLPDYFAIGRTTALALHTVSGQKILYPQDREISEVLLQLPELQNIAGKRALILRGNGGRELIGDTLTARGAEVTFCECYQRCAIHYDGAEEAMRWQAREVTMVVVTSGEMLQQLWSLIPQWYREHWLLHCRLLVVSERLAKLARELGWQDIKVADNADNDALLRALQLEHHHHHH,not soluble
9,MSSQPRFIHLRTHTDFSMIDSIVKVKPLVKACAANEMVAMGLTDFTNFCGVVSFYSEMLSSGMKPIIGADVKVKSPLCGDEYFDLTLLAKNNEGYRNITLLLSKAYQRGYNDLPYIDQDWLIEHRDGVIILSGGTQGDVGKKLLKENVAEIESAVAFYQEFFADHFYLALSRTGRPNEERYIQAALKLAERCDLPLVATNDVMFLNTEDFEAHEIRVAIHDGYTLDDPKRPKCYTSQQYFRSEEDMCKLFADIPSALENTLLIAQRCSVTLRLGQYFLPQFPTGDLSTEDFLVQKSKEGLEERLVFLFPDEKVRLEKRPKYDERLQVELDVINQMGFPGYFLIVMEFIQWSKDNDIPVGPGRGSGAGSLVAYALKITDLDPLEFDLLFERFLNPERVSMPDFDVDFCMDGRDRVIEHVAETYGRGAVSQIITFGTMAAKAVIRDVGRVLGHPYGFVDRISKLIPPDPGMTLAKAFETEPQLQTAYDSDEEVRALINMARKLEGVTRNAGKHAGGVVISPTLITDFAPLYCDNEGLHPVTHFDKNDVEYAGLVKFDFLGLRTLTIIKWALDIINVRMVREGKPRVDIAAIPLDDPESFELLKRSETTAVFQLESRGMKDLIKRLQPDCFEDIIALVALFRPGPLQSGMVDNFIDRKHGREEVSYPDAEYQHASLKPILEPTYGIILYQEQVMQIAQVLAGYTLGGADLLRRAMGKKKPEEMAKQRLVFKEGAEKNGIDGELSMKIFDLVEKFAGYGFNKSHSAAYALVSYQTLWLKTHFPAEFMAAVMTSEMDNTDKIVGLYDECLRMGLKVTPPDINIGKHHFSVNEQGEIVYGIGAIKGVGEGPIEALVAARNEGGIFKDLFDLCARVDLKKINRRTFESLIMSGAFDKLGPHRAALSKNLEDALRASDQHAKDEAMGQTDMFGVLTETHEDVENAYANTPPYTEKQILDGERETLGLYLSSHPVSRYLKELSHYTSTRLKDLAPNRRGQISTVAGLVVASRIAMTKKGNRLGIATLDDRSGRLDLTLFGESLEQFGEKLQKDTVIVASGQVSFDDFSGGLKMTVRELMTLDEARSRYVKSLAISLSEHQITPSFIKQFKALLEPVSGGTLPINVYYQSPKGRALLRLGVQWSIIPTDEILTELVNLLGESAVELEFE,not soluble
10,MSAGTRTQQQPPPKQRHPFQPACRLWCPLSPPSVLPFCASTCRPPPQDRQVRQCGGRIALRVAISPLSSSHSVLDGISHLASRMSDHADIDEAARKRLRAEAPFVSPLPLPPPAAPLLPCDASHNGESAEAAGHILVASAPPHKEDSVASTLHTSAKEARFEGRCMPPSFHSLLGEYEVPEEAKDVEDLVGGHEDFSDLPEARREALLQSVRTLVKKAAGASSAEQLEHLRVKGSRLHGFKDTARKSELTAAYRQLVREGAIAENAVVEALLIRKKGKSHSGVLVVTVFMGPGEFSCPKDCHYCPNQPGIARSYLLKEPGVLRGFRNGWDPISQFYDRASALENNGHVVDKIELIILGGTFSFYPQRYAEEFMTASFYAANTYYDSAPLRPMRSLAEELTLNEGARCRIIGITAETRPDYISARELRRFRSLGITRVQLGIQHLDDDILNLINRDCPTAKTVVAIQRLLDAGFKVDAHWMPDLPGSSFEKDMELFETLFSAENESFQVDQWKVYPTATVPFTKISEWYAQGQYKPYAELDNGAYMVKLLVYIMEHCPYRIRLNRIIRDIPTTYIMGGEKRCNLRQVIEAEMRARHIRCKDIRERECKGNPVDRANTHLFTDEFRASEGTEFYLSVENKDRTQLYGHLRLRLRDDASREESNILPVLRGCALVRELHTYGKLIAVSQQNTGRETQHVGVGTQLMREAERIAKERGYHRMAVIAGVGVRRYYAKLGYRLEDTYMVKELDEQASAITEDQVVQDDDNENSAYSSFLSTIKSFFGFHKNTP,not soluble
11,GPGSMRRTFKKLGLSALRACRGAGAAGTAASAHTSGFARVPSMSAPTALTVPRRSASDAALADATRRELEEEMGRSDKPEQPTPPAGWQVVRKPGTCTFDLTKSFEGEDLVVRYSTNQDSDKANSHNIFVYITQKNGQTMQADLSIEEGELVLNNIRFYDEAALAKDTGAEAEAKRNELYTGPLVHELDYDLLNCVMTYLEKRGVDEKLGEFVVLYSFWAEQQDYEAWLTTMNKFAS,not soluble
12,MGSDKIHHHHHHMQLLHTPAAISISFDDPNLISTAGLVPTMALAEDRLTVPTDKGANPGAKITTLIAGMVAGADSIDDIDALRHGGMHRLFDWIYAPSTLGSFLRAFTFGHVRQLDAVASRFLVGLATQAPALVPVDASTSDYVFIDVDDTIIKVHGHQKQGAGFGYSGIRGLNALLATVTTPESAPVVVAQRLRKGSCGSPRGAGRLIADAVATTRRLPGMEDEKILLRADSAFYGHPSISAAIKAGADVSVTVRMTPNVKKAIAQVPDDAWQTIKYTNAIFDEDTGRWISVAEVAEIPFTAFTSRKKTDHIPGLLVVRRIPELNNKDVDQPGLFDLHRFHAVFTTADPGILDTVAADKTHRQHAIIEQVNADVKASALAHMPSGVFTANSAWLVCAVMAFNLTRTAGVIAAGAMARATTATIRRKLVAVPARIARSARRLILHLPRNWRWETQWSRLCDHGRLPP,not soluble
13,MAHHHHHHMEAETSKISEVPLPIPIGINGFGAVGRAVLFASMTEPQVTVVAVNDFSVSINYVLYVLQNESPLSAEDKASLTVVGEYIFYRGTERIRVTQKHDLVDIAWRDAGVSYVVECTGFTSTRDRCWGHLTSGARGVLVAGQSGDAPAIVAGVNDSDLSKIQPIICSGAPLAVALAPFIRILHESFGVEDCSYTAIHAIQPVEPNAARSANSQDWRQTRVTLDSITPYAHTGMTTFCKLMPTLSSRITGSAFQVPVTKGCAIDMLLRFKQPVAKESVDEALIEASKDRLKDVLFVSKRDFISRDLLPDGKLCYDPSASQCVREGELYKFTLWFDLERSFAKRLISLIPVMNDADAKKNNV,soluble
14,MDRFEIKEEFLLNGQSFKILSGAIHYFRVDPSDWHHSLYNLKALGFNTVETYVPWNLHEPQKGTFHFEGILDLERFLKLAQELGLYAIVRPSPYICAEWEFGGFPAWLLNEPGRMRSNNPTYLKHVAEYYDVLMEKIVPHQLANGGNILMIQIENEYGSFGEEKAYLRAIRDLMIARGVTAPFFTSDGPWRATLRAGSMIEDDILVTGNFGSKAKENFGMMQAFFEEHGKKWPLMCMEFWDGWFNRWKEPIIKRDPQELAESVREALALGSINLYMFHGGTNFGFMNGCSARGTIDLPQITSYDYDAPLDEQGNPTEKYFALQKMLHEEYPALPQAEPLVKESFAQTAIPLTNKVSLFATLETISQPVVSVYPQTMEQLGQNTGYLLYRTSIEKDAAEEKLRVIDGRDRLQLFVNQVHQATQYQTEIGEDIYVTLPQENNQIDILMENMGRVNYGHKLFADTQKKGIRTGVMADLHFMTQWQQYCLPMTSCEQVDYSREWQPDQPSFYQYHVELAEVKDTFIDVSKFGKGIVFVNQTNLGRFWNVGPTLSLYIPKGLLKEGQNEIVIFETEGTYQPEIQLVKEPLYKEMKEGLQ,not soluble
